# Results: US20160200782A1
# Assays:
# Assay in all cases: cell-based or functional assay
# [1] = biological target: Hck(h) activated (human) (UniProt P08631)
# [2] = biological target: BrSK2(h) (human) (UniProt Q8IWQ3)
# [3] = biological target: CHK2(R145W)(h) (human) (UniProt O96017)
# [4] = biological target: CaMKIδ(h) (human) (UniProt Q8IU85)
# [5] = biological target: PDGFRα(V561D)(h) (human) (UniProt P16234)
# [6] = biological target: cKit(D816H)(h) (human) (UniProt P10721)
# [7] = biological target: SGK2(h) (human) (UniProt Q9HBY8)
# [8] = biological target: ROCK-II(h) (human) (UniProt O75116)
# [9] = biological target: PKCγ(h) (human) (UniProt P05129)
# [10] = biological target: Ret(V804L)(h) (human) (UniProt P07949)
# [11] = biological target: Plk3(h) (human) (UniProt Q9H4B4)
# [12] = biological target: PKCτ(h) (human)
# [13] = biological target: TAO2(h) (human) (UniProt Q9UL54)
# [14] = biological target: Tec(h)activated (human) (UniProt P42680)
# [15] = biological target: IRAK4(h) (human) (UniProt Q9NWZ3)
# [16] = biological target: PASK(h) (human) (UniProt Q96RG2)
# [17] = biological target: MST1(h) (human) (UniProt Q13043)
# [18] = biological target: ARK5(h) (human) (UniProt O60285)
# [19] = biological target: GRK6(h) (human) (UniProt P43250)
# [20] = biological target: FGFR1(h) (human) (UniProt P11362)
# [21] = biological target: EphB3(h) (human) (UniProt P54753)
# [22] = biological target: PKCη(h) (human) (UniProt P24723)
# [23] = biological target: Met(Y1248H)(h) (human) (UniProt P08581)
# [24] = biological target: MRCKβ(h) (human) (UniProt Q9Y5S2)
# [25] = biological target: JNK2α2(h) (human) (UniProt P45984)
# [26] = biological target: KDR(h) (human) (UniProt P35968)
# [27] = biological target: ZAP-70(h) (human) (UniProt P43403)
# [28] = biological target: SRPK1(h) (human) (UniProt Q96SB4)
# [29] = biological target: CSK(h) (human) (UniProt P41240)
# [30] = biological target: cKit(V560G)(h) (human) (UniProt P10721)
# [31] = biological target: MKK6(h) (human) (UniProt P52564)
# [32] = biological target: ULK3(h) (human) (UniProt Q6PHR2)
# [33] = biological target: EGFR(T790M)(h) (human) (UniProt P00533)
# [34] = biological target: TBK1(h) (human) (UniProt Q9UHD2)
# [35] = biological target: STK33(h) (human) (UniProt Q9BYT3)
# [36] = biological target: Flt4(h) (human) (UniProt P35916)
# [37] = biological target: Fyn(h) (human) (UniProt P06241)
# [38] = biological target: MARK1(h) (human) (UniProt Q9P0L2)
# [39] = biological target: Pim-3(h) (human) (UniProt Q86V86)
# [40] = biological target: Tie2(Y897S)(h) (human) (UniProt Q02763)
# [41] = biological target: SRPK2(h) (human) (UniProt P78362)
# [42] = biological target: CDK6/cyclinD3(h) (human) (UniProt Q00534)
# [43] = biological target: EGFR(T790M,L858R)(h) (human) (UniProt P00533)
# [44] = biological target: Met(D1246N)(h) (human) (UniProt P08581)
# [45] = biological target: Met(h) (human) (UniProt P08581)
# [46] = biological target: Itk(h) (human) (UniProt Q08881)
# [47] = biological target: Ab1(h) (human) (UniProt P00519)
# [48] = biological target: CDK2/cyclinE(h) (human) (UniProt P24941)
# [49] = biological target: PKG1α(h) (human) (UniProt Q13976)
# [50] = biological target: SAPK3(h) (human) (UniProt P53778)
# [51] = biological target: Fes(h) (human) (UniProt P07332)
# [52] = biological target: DYRK2(h) (human) (UniProt Q92630)
# [53] = biological target: PKBα(h) (human) (UniProt P31749)
# [54] = biological target: MAPKAP-K3(h) (human) (UniProt Q16644)
# [55] = biological target: RIPK2(h) (human) (UniProt O43353)
# [56] = biological target: IR(h) (human) (UniProt P06213)
# Chain of MKK6(h) (human) (P52564 whole entry): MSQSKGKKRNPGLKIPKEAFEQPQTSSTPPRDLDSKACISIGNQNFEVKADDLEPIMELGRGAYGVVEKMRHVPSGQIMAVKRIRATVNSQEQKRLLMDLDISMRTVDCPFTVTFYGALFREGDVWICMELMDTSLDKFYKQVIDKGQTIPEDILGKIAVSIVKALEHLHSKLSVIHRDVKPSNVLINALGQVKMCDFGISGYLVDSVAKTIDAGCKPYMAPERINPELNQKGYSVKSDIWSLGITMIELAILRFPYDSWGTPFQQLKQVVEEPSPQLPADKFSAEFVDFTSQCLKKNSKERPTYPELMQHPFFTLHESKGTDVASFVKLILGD
# Chain of CSK(h) (human) (P41240 whole entry): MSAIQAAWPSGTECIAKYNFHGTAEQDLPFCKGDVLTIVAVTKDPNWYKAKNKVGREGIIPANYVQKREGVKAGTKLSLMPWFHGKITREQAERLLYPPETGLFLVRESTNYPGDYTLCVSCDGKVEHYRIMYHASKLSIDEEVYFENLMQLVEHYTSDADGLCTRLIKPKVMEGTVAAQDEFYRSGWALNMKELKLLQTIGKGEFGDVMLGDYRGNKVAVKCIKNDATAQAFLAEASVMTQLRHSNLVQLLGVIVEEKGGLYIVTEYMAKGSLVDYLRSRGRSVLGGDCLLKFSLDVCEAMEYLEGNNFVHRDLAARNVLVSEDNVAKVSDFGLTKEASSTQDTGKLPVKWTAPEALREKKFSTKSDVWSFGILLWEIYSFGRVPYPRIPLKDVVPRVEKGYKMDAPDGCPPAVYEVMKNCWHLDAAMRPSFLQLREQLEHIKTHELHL
# Chain of SRPK2(h) (human) (P78362 whole entry): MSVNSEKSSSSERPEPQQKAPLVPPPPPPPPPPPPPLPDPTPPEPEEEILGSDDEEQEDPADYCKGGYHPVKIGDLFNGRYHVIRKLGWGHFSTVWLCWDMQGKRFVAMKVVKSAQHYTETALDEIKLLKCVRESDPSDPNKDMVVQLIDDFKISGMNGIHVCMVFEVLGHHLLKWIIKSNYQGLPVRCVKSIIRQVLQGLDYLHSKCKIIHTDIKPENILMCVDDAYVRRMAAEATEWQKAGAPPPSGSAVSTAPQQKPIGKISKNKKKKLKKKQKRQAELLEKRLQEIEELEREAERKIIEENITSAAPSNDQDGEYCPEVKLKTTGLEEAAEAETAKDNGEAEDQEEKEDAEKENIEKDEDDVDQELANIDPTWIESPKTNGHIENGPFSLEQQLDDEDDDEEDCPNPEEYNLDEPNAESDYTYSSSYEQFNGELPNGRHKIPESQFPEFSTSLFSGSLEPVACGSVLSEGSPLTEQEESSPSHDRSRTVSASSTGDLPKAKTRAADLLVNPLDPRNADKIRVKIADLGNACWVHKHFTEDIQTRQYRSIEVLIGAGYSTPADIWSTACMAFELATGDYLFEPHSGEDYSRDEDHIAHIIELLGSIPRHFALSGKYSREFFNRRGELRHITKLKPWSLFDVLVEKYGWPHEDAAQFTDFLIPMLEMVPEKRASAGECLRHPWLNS
# Chain of Ab1(h) (human) (P00519 27-1130 limits assumed): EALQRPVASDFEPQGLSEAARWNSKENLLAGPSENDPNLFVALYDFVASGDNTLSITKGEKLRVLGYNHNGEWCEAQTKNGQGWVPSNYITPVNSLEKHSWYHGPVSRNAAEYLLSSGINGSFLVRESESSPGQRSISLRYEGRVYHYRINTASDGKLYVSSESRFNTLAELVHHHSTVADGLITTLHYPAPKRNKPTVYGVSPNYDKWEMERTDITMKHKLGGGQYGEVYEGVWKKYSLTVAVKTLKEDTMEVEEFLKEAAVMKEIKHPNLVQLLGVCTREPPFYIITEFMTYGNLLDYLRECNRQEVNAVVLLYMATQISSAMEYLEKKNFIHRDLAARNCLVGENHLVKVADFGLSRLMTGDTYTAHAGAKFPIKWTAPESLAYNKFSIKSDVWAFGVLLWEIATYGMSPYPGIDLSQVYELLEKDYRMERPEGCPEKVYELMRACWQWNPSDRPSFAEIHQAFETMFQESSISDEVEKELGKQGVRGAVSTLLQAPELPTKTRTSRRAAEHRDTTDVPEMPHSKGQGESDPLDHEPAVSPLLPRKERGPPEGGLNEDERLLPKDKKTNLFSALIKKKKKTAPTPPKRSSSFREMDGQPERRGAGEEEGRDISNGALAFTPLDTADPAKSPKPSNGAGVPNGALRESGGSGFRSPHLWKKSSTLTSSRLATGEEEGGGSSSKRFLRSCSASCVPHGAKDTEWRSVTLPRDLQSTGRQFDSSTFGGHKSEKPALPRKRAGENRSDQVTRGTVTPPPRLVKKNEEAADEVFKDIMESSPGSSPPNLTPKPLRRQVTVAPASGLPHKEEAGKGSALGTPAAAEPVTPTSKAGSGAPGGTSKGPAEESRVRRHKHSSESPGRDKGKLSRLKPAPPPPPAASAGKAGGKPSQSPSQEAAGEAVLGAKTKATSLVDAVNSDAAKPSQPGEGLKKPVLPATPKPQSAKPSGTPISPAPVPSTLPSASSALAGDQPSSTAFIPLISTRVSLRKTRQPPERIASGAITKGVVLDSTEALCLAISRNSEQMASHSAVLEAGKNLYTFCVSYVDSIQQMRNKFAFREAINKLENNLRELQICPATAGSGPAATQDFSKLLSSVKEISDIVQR
# Chain of Itk(h) (human) (Q08881 whole entry): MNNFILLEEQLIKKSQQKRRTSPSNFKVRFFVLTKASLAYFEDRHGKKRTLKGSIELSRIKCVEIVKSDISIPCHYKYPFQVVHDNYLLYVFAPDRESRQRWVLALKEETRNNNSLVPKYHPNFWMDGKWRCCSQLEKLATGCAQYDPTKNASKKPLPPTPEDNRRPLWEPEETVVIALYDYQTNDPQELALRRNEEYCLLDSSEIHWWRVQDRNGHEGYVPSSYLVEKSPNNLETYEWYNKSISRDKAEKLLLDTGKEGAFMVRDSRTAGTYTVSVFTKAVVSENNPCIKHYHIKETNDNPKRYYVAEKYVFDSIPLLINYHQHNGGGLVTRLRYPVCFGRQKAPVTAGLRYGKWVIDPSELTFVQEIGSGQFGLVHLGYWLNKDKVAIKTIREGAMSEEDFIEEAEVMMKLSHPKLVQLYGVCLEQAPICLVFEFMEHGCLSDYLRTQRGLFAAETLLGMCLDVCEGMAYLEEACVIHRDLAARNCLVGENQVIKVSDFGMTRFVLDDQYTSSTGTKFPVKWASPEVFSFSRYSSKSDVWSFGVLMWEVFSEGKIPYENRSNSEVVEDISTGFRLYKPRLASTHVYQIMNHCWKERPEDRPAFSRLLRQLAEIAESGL
# Chain of ZAP-70(h) (human) (P43403 whole entry): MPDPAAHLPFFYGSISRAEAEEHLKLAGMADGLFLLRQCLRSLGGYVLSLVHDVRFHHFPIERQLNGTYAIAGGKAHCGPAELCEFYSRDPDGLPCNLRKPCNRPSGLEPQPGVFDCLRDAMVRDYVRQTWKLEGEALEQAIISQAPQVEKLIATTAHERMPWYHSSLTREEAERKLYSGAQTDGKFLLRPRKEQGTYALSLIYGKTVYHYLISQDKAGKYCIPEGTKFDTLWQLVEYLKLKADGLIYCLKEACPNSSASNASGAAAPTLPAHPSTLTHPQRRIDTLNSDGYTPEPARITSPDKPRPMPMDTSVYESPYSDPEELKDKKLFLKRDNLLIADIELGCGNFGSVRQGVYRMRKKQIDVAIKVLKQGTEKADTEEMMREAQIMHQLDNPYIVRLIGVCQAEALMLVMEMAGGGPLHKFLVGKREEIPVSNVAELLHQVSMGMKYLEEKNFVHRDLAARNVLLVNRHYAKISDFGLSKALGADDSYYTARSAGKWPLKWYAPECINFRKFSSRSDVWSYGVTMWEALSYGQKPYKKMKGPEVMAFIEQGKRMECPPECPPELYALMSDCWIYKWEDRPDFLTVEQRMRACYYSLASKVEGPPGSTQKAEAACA
# Chain of Hck(h) activated (human) (P08631 251-518 limits assumed): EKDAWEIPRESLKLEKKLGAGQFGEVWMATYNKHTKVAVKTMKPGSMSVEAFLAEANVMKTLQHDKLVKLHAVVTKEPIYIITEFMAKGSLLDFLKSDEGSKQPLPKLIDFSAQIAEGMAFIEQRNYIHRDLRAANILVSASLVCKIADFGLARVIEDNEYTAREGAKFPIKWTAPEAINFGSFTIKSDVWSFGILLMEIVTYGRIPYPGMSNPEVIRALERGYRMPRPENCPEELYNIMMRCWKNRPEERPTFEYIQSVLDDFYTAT
# Chain of CHK2(R145W)(h) (human) (O96017 5-543 R145W limits assumed): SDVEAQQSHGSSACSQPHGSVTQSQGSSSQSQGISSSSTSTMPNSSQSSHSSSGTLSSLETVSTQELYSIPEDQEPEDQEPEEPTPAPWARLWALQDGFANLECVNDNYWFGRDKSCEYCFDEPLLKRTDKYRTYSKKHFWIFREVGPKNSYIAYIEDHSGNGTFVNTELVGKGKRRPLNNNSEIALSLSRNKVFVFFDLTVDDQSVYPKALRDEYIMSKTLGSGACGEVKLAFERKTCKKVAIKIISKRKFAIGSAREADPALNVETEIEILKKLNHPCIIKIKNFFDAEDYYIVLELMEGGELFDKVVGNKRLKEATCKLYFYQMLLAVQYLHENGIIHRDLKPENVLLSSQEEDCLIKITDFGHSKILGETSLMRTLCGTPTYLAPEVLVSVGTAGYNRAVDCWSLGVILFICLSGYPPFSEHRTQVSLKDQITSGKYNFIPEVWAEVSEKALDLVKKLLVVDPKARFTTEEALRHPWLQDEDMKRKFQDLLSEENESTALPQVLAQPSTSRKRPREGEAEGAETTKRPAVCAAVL
# Chain of RIPK2(h) (human) (O43353 1-299 limits assumed): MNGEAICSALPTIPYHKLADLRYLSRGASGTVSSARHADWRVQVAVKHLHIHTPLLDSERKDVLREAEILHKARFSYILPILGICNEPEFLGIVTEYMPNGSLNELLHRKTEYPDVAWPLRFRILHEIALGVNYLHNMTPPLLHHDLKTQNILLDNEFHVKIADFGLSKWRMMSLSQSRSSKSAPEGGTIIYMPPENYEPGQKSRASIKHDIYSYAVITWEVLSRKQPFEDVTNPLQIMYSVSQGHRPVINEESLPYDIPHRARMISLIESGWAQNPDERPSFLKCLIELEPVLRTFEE
substance,measurement,setting,value
MMI-0100 (peptide),% activity,[1],58%
same,% activity,[2],129%
same,% activity,[3],97%
same,% activity,[4],59%
same,% activity,[5],58%
same,% activity,[6],79%
same,% activity,[7],103%
same,% activity,[8],102%
same,% activity,[9],94%
same,% activity,[10],113%
same,% activity,[11],107%
same,% activity,[12],110%
same,% activity,[13],95%
same,% activity,[14],100%
same,% activity,[15],100%
same,% activity,[16],81%
same,% activity,[17],85%
same,% activity,[18],108%
same,% activity,[19],131%
same,% activity,[20],120%
same,% activity,[21],109%
same,% activity,[22],105%
same,% activity,[23],88%
same,% activity,[24],103%
same,% activity,[25],114%
same,% activity,[26],100%
same,% activity,[27],79%
same,% activity,[28],69%
same,% activity,[29],70%
same,% activity,[30],94%
same,% activity,[31],74%
same,% activity,[32],142%
same,% activity,[33],106%
same,% activity,[34],106%
same,% activity,[35],99%
same,% activity,[36],135%
same,% activity,[37],71%
same,% activity,[38],109%
same,% activity,[39],98%
same,% activity,[40],99%
same,% activity,[41],92%
same,% activity,[42],103%
same,% activity,[43],93%
same,% activity,[44],114%
same,% activity,[45],104%
same,% activity,[46],99%
same,% activity,[47],136%
same,% activity,[48],106%
same,% activity,[49],82%
same,% activity,[50],106%
same,% activity,[51],44%
same,% activity,[52],99%
same,% activity,[53],140%
same,% activity,[54],27%
same,% activity,[55],92%
same,% activity,[56],112%
MMI-0200 (peptide),% activity,[1],100%
same,% activity,[2],102%
same,% activity,[3],81%
same,% activity,[4],47%
same,% activity,[5],106%
same,% activity,[6],106%
same,% activity,[7],119%
same,% activity,[8],85%
same,% activity,[9],101%
same,% activity,[10],100%
same,% activity,[11],107%
same,% activity,[12],97%
same,% activity,[13],93%
same,% activity,[14],77%
same,% activity,[15],110%
same,% activity,[16],60%
same,% activity,[17],72%
same,% activity,[18],93%
same,% activity,[19],132%
same,% activity,[20],97%
same,% activity,[21],128%
same,% activity,[22],101%
same,% activity,[23],153%
same,% activity,[24],102%
same,% activity,[25],109%
same,% activity,[26],110%
same,% activity,[27],58%
same,% activity,[28],93%
same,% activity,[29],33%
same,% activity,[30],115%
same,% activity,[31],98%
same,% activity,[32],164%
same,% activity,[33],113%
same,% activity,[34],98%
same,% activity,[35],98%
same,% activity,[36],105%
same,% activity,[37],75%
same,% activity,[38],102%
same,% activity,[39],94%
same,% activity,[40],85%
same,% activity,[41],100%
same,% activity,[42],100%
same,% activity,[43],108%
same,% activity,[44],149%
same,% activity,[45],71%
same,% activity,[46],98%
same,% activity,[47],107%
same,% activity,[48],112%
same,% activity,[49],70%
same,% activity,[50],97%
same,% activity,[51],74%
same,% activity,[52],142%
same,% activity,[53],110%
same,% activity,[54],39%
same,% activity,[55],98%
same,% activity,[56],90%
